This is an account of results in US20050070690A1.

Assay [1] has as its target brain derived neurotrophic factor. Briefly: SPR (BiaCore), TrkIg2 amine-coupled to CM5 chip, BDNF passed over at 0.1-25 nM, 1:1 Langmuir model. On the technique in general: SPR reads the build-up and loss of mass on a sensor chip optically.
A further assay has as its target neurotrophin-4. The experiment in a line: SPR (BiaCore), TrkIg2 amine-coupled to CM5 chip, NT-4 passed over at 1-100 nM, 1:1 Langmuir model.
Another assay concerns the target nerve growth factor. Briefly: SPR (BiaCore), TrkIg2 amine-coupled to CM5 chip, NGF passed over at 0.1-100 nM, 1:1 Langmuir model.

The term Kd denotes the constant that tells how readily two partners part at equilibrium. Higher therefore signals weaker binding. As for “TrkBIg26His (from UniProt Q16620) (receptor)”, the Kd was found to be 0.79 nM in assay [1] and 0.26 nM with neurotrophin-4.

Turning to “TrkAIg2.66His (from UniProt P04629) (receptor)”, the Kd with nerve growth factor is 0.0792 nM.

Consider “TrkAIg26His (from UniProt P04629-2) (receptor)”, for which, in the assay with nerve growth factor, the dissociation constant (Kd) is 0.0926 nM.
